Entries after “also recorded” stand apart in the source; their conditions may differ. Ends that are not written are not given here.
How the values were obtained:
[1] = Stability of purified peptide spiked into Av3b fermentation beer (rpHPLC); assay type: physicochemical
Protocol: To determine the stability of the new mutants, Av3bM19, Av3bM23, Av3bM24, Av3bM25, Av3bM27, and Av3bM28 were purified and incubated in Av3b fermentation beer. The mutants were purified by cation-exchange chromatography using a GE SP-Sephadex C-25 column. The column was first calibrated with 30 mM sodium citrate buffer at pH 3.0. Then, the culture supernatant containing the secreted mutant peptide was loaded into the column to let the mutant peptide bind to the resin. The column was then washed with 30 mM sodium citrate buffer, pH 3.0, followed by washing with 30 mM sodium acetate, pH 4.0. Next, the bound mutant peptide was eluted by 1 M or 2 M NaCl with 30 mM sodium acetate, pH 4.0. The elution was then concentrated and buffer-exchanged to 30 mM sodium acetate, pH 4.0 using a 1 kD cutoff spin concentrator.
After purification, each of the mutants, Av3bM19, Av3bM23, Av3bM24, Av3bM25, Av3bM27, and Av3bM28, were evaluated for stability by spiking them into Av3b strain fermentation beer at pH 6.5. As a negative control, Av3b was evaluated in a pH 4.0 buffer. As a positive control, purified Av3b was evaluated by spiking into the same Av3b fermentation beer at pH 6.5. All stability experiments were performed at room temperature. […] The amount of peptide remaining relative to the beginning was determined by normalizing the peak area at different time to the one at 0 hour for each treatment. The degradation trend is visualized by the bar graph of the relative remaining peptide amount trend.

Spodoptera frugiperda = test: Lepidoptera injection assay, fall armyworm (FAW); assay type: in vivo; conditions: third instar larva, 2 μL injection, scored at 24-hours post-injection
Protocol: An injection assay was performed on Helicoverpa zea (corn earworm or “CEW”) and Spodoptera frugiperda (fall armyworm or “FAW”). Injections comprised a given Av3b mutant peptide combined with water to arrive at the planned dose. The Av3b mutants included Av3bM24; Av3bM165; Av3bM103; and Av3bM170. Av3b was used as a control.
Insects were reared on an artificial diet prepared from General Purpose Lepidoptera diet (Frontier Scientific, Newark, DE 19713, product No. F9772) according to the manufacturer's instructions. To perform the insect injection bioassay, 5 mL of hot diet was dispensed into the well of a rearing tray (Bio-Service Inc., Bio-RT-32), with 8 wells per injection treatment. The hot diet was then allowed to cool and solidify. Next, third instar larva were incubated on ice in order to immobilize them. Injections were prepared on a hand-microapplicator with injection solution (>100 μL) in 1-cc all-glass syringe having a 30 gauge straight needle. Air bubbles were removed from the syringe, and the syringe was set it up on the microapplicator. Injection volume was adjusted in the microapplicator at 2 μL.
To inject the larva, the insects were picked up and positioned close to the injection needle. The needle was allowed to penetrate the cuticle of the third pro-leg of the larva. The injection knob of the microapplicator was then rotated to inject a 2 μL solution into hemolymph from the third pro-leg. After injection the larva maintained on the needle for a few seconds to make sure the injected solution was absorbed. Then, the larva were gently removed from the needle and placed into the wells of prepared tray, along with 5 mL of solidified diet per well. Finally, the tray was sealed with vent covers.
Injected larva were incubated at 28° C. in an insect incubator, and scored at 24-hours post-injection based on their condition. Insect conditions were categorized as follows: alive (walking, eating, normal behavior); affected (showing toxic symptoms, such as tremors, writhing, unbalanced gait, or a combination thereof), knockdown (paralyzed albeit able to move with gentle poke); and dead (unmoving, discoloration, or a combination thereof).

[2] = Circular dichroism assay, melting temperature; assay type: physicochemical; conditions: 10 mM Na3PO4 solution, pH 5.9; 20° C. to 98° C.
Protocol: A JASCO J-1500 CD spectrometer (JASCO, 28600 Mary's Court, Easton, MD 21601 USA) was used to measure the CD spectrum and the secondary structure information of the Av3bM24, Av3bM165, Av3bM103, and Av3bM170 peptides (with Av3b as a comparator). The peptides were prepared in 10 mM Na3PO4 solution, pH 5.9, and loaded into the cuvette for CD spectrum measurement. Measurements were processed with a light wavelength scan ranging from 180 nm to 250 nm, with a 1 nm interval; the temperature graduate changed from 20° C. to 98° C., with 2° C. interval.

[3] = Stability of Av3b mutants in insect gut extract; assay type: in vitro ADME, Helicoverpa zea; conditions: H. zea gut extract digestion, room temperature
Protocol: To test the stability of the Av3b mutants in the gut enzymes of a lepidopteran pest, the gut extract were prepared from Helicoverpa zea (Corn Earworm or “CEW”). Corn Earworm insects were obtained commercially from Benzon Research (Carlisle, PA) as eggs. Hatched larvae were raised on artificial diet until ⅘^th instar (20 mm long) before guts were isolated. Before gut extraction, larvae were anesthetized using CO2. The larva was then pinned on the dissection plate at both the head and the tail. Using dissection scissors, the cuticle was nicked. The dissection scissors were then inserted into the nick and the […] along the insect. The cuticle was then carefully pulled back and pinned open to reveal the digestive track. Using DI water, the insect was thoroughly rinsed to remove hemolymph.
After the insect guts were extracted from the larva, they were spun at 15000 rpm for 5 minutes. The resulting supernatant is the “insect gut extract” that was used to determine peptide stability. Av3b mutant peptide was mixed with the gut extract to […] of 2 μg/μL, and incubated at room temperature. At time points between 0-100 hours, 6 μL of a given sample was mixed with 93 μL dH2O followed by the addition of 1 μL of a 2% trifluoracetic acid solution to stop the reaction. The sample was then analyzed by rpHPLC to determine the peptide loss during the gut extract treatment.

Question: Which half-degradation time ([1]; Av3b production fermentation beer pH 6.5, room temperature (Example 11, FIG. 37)) does the source give for “KSCCPCYWGGCPWGQNCYPEGCDGPK (ends and bridges not checked; cysteine pairing not given here) [Av3bM24]” here?
Answer: The half-degradation time was 652 h.

Question: What about the peptide remaining ([1]; fermentation beer pH 6.5, room temperature, 248 hours, HPLC peak area relative to starting amount) of the same sequence?
Answer: The peptide remaining was 84%.

Question: What about the “resistance to fermentation beer protease cleavage compared to Av3b” value ([1]; spiked into Av3b fermentation beer pH 6.5, room temperature) of the same sequence?
Answer: The value was “greater resistance to yeast fermentation beer protease cleavage; also recorded: improved resistance to fermentation beer cleavage; also recorded: resist the degradation in Av3b fermentation beer”.

Question: And the “KD50 FAW” value (Spodoptera frugiperda)?
Answer: The value was 949 pmol/g.

Question: And the “CD Melting temperature” value [2]?
Answer: The value was 80 °C.

Question: What about the “resistance to degradation in gut extract” value [3] of the same sequence?
Answer: Its value is “most resistant to degradation”.

From patent US20250188136A1, “AV3 MUTANT POLYPEPTIDES FOR PEST CONTROL” (Vestaron Corporation, priority 2021, published 2025)
